According to patent US20040241778:

Assays:
[1] = molecular target: IGFBP-5 (commercially available, upstate biotechnology), P24593
[2] = molecular target: IGFBP-5-FLAG protein (full-length IGFBP-5 with the FLAG tag of SEQ ID NO: 12 at the C-terminus), P24593
[3] = molecular target: IGFBP-3 (commercially available, upstate biotechnology), P17936
Chain of IGFBP-3 (commercially available, upstate biotechnology), P17936 (P17936 28-291): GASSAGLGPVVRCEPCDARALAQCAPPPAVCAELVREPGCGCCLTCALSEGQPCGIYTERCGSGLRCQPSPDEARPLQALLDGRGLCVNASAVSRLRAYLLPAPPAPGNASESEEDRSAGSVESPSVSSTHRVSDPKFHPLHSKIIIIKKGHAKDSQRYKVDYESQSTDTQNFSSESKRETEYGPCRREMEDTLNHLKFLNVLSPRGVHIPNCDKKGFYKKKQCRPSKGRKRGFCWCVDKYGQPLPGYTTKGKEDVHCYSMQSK

Chain of IGFBP-5-FLAG protein (full-length IGFBP-5 with the FLAG tag of SEQ ID NO: 12 at the C-terminus), P24593 (P24593 other isoform, or with tags, fused parts or gaps): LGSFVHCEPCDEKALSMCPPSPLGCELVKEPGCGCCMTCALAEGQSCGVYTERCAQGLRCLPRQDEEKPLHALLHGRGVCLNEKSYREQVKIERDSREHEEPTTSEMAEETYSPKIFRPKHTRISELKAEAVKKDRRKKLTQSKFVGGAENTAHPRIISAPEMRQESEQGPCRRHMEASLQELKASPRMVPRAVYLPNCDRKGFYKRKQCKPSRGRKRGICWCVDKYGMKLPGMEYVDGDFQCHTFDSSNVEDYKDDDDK
Chain of IGFBP-5 (commercially available, upstate biotechnology), P24593 (P24593 21-272): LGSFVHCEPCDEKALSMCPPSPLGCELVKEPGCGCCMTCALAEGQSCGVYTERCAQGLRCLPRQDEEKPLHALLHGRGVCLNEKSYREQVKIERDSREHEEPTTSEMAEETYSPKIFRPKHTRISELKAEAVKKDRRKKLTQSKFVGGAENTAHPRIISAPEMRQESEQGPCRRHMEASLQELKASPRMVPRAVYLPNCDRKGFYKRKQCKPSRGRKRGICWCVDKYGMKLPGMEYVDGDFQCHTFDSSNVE

B1: MD8S-FLAG protein (extracellular region of human MD8, amino acids 1 to 646 of SEQ ID NO: 2, with a C-terminal FLAG tag) (protein)
chain: IAPSRPWALMEQYEVVLPRRLPGPRVRRALPSHLGLHPERVSYVLGATGHNFTLHLRKNRDLLGSGYTETYTAANGSEVTEQPRGQDHCFYQGHVEGYPDSAASLSTCAGLRGFFQVGSDLHLIEPLDEGGEGGRHAVYQAEHLLQTAGTCGVSDDSLGSLLGPRTAAVFRPRPGDSLPSRETRYVELYVVVDNAEFQMLGSEAAVRHRVLEVVNHVDKLYQKLNFRVVLVGLEIWNSQDRFHVSPDPSVTLENLLTWQARQRTRRHLHDNVQLITGVDFTGTTVGFARVSAMCSHSSGAVNQDHSKNPVGVACTMAHEMGHNLGMDHDENVQGCRCQERFEAGRCIMAGSIGSSFPRMFSDCSQAYLESFLERPQSVCLANAPDLSHLVGGPVCGNLFVERGEQCDCGPPEDCRNRCCNSTTCQLAEGAQCAHGTCCQECKVKPAGELCRPKKDMCDLEEFCDGRHPECPEDAFQENGTPCSGGYCYNGACPTLAQQCQAFWGPGGQAAEESCFSYDILPGCKASRYRADMCGVLQCKGGQQPLGRAICIVDVCHALTTEDGTAYEPVPEGTRCGPEKVCWKGRCQDLHVYRSSNCSAQCHNHGVCNHKQECHCHAGWAPPHCAKLLTEDYKDDDDK
[1]
  activity of digesting IGFBP-5 (overnight reaction at 37 C, SDS-PAGE and western blot): new plural bands within the range of 12 to 25 kDa were detected in the case of IGFBP-5
[2]
  activity of digesting recombinant IGFBP-5 (overnight reaction at 37 C, SDS-PAGE and western blot with biotinylated M2 antibody): recombinant IGFBP-5, which was detected in the control without the MD8S enzyme solution, was made to disappear by adding the MD8S enzyme solution
[3]
  activity of digesting IGFBP-3 (overnight reaction at 37 C, SDS-PAGE and western blot): a new band of 25 kDa was detected in the case of IGFBP-3
